Test results from PMC6433275 (Nature structural & molecular biology, 2019).

Target: T1, E. coli MukB (E. coli, UniProt P22523 1-1486)
T1 sequence: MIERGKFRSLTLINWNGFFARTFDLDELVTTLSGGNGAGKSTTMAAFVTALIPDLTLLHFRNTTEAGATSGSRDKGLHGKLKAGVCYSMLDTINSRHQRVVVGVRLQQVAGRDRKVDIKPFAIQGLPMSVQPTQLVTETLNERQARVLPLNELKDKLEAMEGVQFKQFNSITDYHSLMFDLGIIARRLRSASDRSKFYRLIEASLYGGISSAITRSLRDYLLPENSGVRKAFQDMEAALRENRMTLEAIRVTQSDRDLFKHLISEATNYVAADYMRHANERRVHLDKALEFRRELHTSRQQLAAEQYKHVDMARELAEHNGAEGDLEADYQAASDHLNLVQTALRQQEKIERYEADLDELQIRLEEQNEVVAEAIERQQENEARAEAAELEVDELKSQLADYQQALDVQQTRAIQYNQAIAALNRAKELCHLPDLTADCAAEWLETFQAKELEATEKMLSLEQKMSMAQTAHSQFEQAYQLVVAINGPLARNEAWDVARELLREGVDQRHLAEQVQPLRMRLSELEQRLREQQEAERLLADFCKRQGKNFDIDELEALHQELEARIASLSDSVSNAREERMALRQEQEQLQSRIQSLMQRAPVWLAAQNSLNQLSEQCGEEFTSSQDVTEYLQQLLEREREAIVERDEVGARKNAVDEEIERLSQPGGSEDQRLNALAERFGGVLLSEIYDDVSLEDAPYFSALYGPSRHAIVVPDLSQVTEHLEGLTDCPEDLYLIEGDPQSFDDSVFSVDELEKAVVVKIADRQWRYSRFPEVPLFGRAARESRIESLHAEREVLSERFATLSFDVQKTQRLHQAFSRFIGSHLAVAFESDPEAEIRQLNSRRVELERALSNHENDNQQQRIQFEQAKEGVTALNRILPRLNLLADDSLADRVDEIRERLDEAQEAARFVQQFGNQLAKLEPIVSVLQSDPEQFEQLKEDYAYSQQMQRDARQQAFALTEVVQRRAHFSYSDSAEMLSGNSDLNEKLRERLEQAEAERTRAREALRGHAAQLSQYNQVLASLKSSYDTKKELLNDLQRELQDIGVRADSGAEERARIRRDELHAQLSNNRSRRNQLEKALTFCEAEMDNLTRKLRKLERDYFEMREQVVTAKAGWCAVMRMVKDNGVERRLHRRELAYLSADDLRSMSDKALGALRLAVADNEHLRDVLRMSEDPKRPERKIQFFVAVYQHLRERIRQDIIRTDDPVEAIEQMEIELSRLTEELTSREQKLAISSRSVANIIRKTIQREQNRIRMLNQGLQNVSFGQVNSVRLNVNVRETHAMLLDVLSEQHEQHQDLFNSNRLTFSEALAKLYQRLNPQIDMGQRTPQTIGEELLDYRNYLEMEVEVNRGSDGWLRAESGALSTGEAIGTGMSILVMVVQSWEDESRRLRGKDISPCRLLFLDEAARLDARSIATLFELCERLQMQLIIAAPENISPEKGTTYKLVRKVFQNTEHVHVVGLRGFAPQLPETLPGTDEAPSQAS
Assay: SEC

binding result: binds
B1: E. coli MukEF complex (complex)
chain 1: MSSTNIEQVMPVKLAQALANPLFPALDSALRSGRHIGLDELDNHAFLMDFQEYLEEFYARYNVELIRAPEGFFYLRPRSTTLIPRSVLSELDMMVGKILCYLYLSPERLANEGIFTQQELYDELLTLADEAKLLKLVNNRSTGSDVDRQKLQEKVRSSLNRLRRLGMVWFMGHDSSKFRITESVFRFGADVRAGDDPREAQRRLIRDGEAMPIENHLQLNDETEENQPDSGEEE
chain 2: MSEFSQTVPELVAWARKNDFSISLPVDRLSFLLAVATLNGERLDGEMSEGELVDAFRHVSDAFEQTSETIGVRANNAINDMVRQRLLNRFTSEQAEGNAIYRLTPLGIGITDYYIRQREFSTLRLSMQLSIVAGELKRAADAAEEGGDEFHWHRNVYAPLKYSVAEIFDSIDLTQRLMDEQQQQVKDDIAQLLNKDWRAAISSCELLLSETSGTLRELQDTLEAAGDKLQANLLRIQDATMTHDDLHFVDRLVFDLQSKLDRIISWGQQSIDLWIGYDRHVHKFIRTAIDMDKNRVFAQRLRQSVQTYFDEPWALTYANADRLLDMRDEEMALRDEEVTGELPEDLEYEEFNEIREQLAAIIEEQLAVYKTRQVPLDLGLVVREYLSQYPRARHFDVARIVIDQAVRLGVAQADFTGLPAKWQPINDYGAKVQAHVIDKY
